According to IntAct's records for PubMed 23700447:

B1: Membrane protein (Human SARS coronavirus), P59596 (parent)
chain: MADNGTITVEELKQLLEQWNLVIGFLFLAWIMLLQFAYSNRNRFLYIIKLVFLWLLWPVTLACFVLAAVYRINWVTGGIAIAMACIVGLMWLSYFVASFRLFARTRSMWSFNPETNILLNVPLRGTIVTRPLMESELVIGAVIIRGHLRMAGHSLGRCDIKDLPKEITVATSRTLSYYKLGASQRVGTDSGFAAYNRYRIGNYKLNTDHAGSNDNIALLVQ

Variants of: B1
Conditions: with ncap_sars N

| Variant | effect of a mutation on the interaction |
| --- | --- |
| L218A;L219A | with no effect |
